Assay: soluble on expression in E. coli; label from the status in PepcDB or PDB records

Sequence | soluble on expression in E. coli
MGYIQSGKSKVEIVNVSETVTSAANVSQYPVESGAPITDNMMYTGGPVTISGWILAKNGNAAEQAYNTLVAWQKDVRWIVYRGRSYFKNAVIQDISKGYDTVENGFTITITLQPIRVAKTIWEKIPQPPVAKQPSKPSNAVYVTVQPGNTYWGWWQQYGTSIQQLRDWNKWPDRFIPIGARARVK | not soluble
GKDFTYNASLTFSHARNEIRNMDEPATKTAYRKQEGHPINQYFGLVCDGFVTQADLNNPDFPVSTFGNVQVGDLKYRDMNGDGFIDSRDETFIGYSDVPENTYALSLGCEYKGIGFSIMFQGVDHVSRYYDAEAMYAFVNGGKVKEHHLNRWNPNQSEAYNLTHASYPLLHYDSYGDHNQRKNSFFLKNGNFLRLKNIELSYSLPARWIRKVAMNECRVYVNANNLITWDKLDGLCDPESEGSNRYPIMKTVNFGVNIKF | not soluble
MRTFESVADLAAAAGEKVGQSDWVTITQEEVNLFADATGDHQWIHVDPERAAAGPFGTTIAHGFMTLALLPRLQHQMYTVKGVKLAINYGLNKVRFPAPVPVGSRVRATSSLVGVEDLGNGTVQATVSTTVEVEGSAKPACVAESIVRYVA | soluble
MVKSAVLGFPRIGKNRELKKATEAYWSGKTSAEELLATAKQLRLEHWKLQKAQGVDIIPSNDFSLYDQIMDHSFSFNVIPPRYRLSGLSSLDTYFAMGRGMQRAATADKAAVDVPAGEMVKWFDSNYHFLRPEVSEETDFKLSSTKALDEFLEAKEAGIITRPVLVGPVTYLFIAKAAKGSSIKPIELLPKLLPVYVELIKKLTEAGAEYIQIDEPILTLDLPQEILASYKEAYETLGKIGKLILTTYFGSLQSNADVLKGLPIAGVHVDVVRAPENLDRALAVLGENQIISVGVVSGRNIWKTDFQKATAIIEKAISAVGSERVQVASSSSILHIPHSLSGEDQINPEIKRWFAFAVEKCAELAILTKAANDGPASVRAELEANAADCKARAESPITNVEAVRERQSKVTPQMHERKSPFETRYAKQQASLKLPLFPTTTIGSFPQTKEIRVTRNRFAKGLISQEEYDAFIRKEISDVVKFQEEVGLDVLVHGEPERNDMVQYFGERMEGFVFTVNGWVQSYGSRCVRPPIIVGDVYRPAPMTVKESQYAQSITSKPMKGMLTAPITILRWSFPRDDVHDSVQAQQIALGLRDEVLDLEKAGIKVIQCDEPALREGLPLRRAEWDEYLKWAIDAFRLATAAVQDDTQIHSHFCYSDFNDIFDAIQRLDADVVSIENSKSDMKLLNVLSRYTSCIGPGLFDIHSPRVPPVSEFKERIDAIVKHVPKDHLWLNPDCGLKTRGWPETTADLKNMIAAAREAREQYA | soluble
MPGELLGAHYGHCFGCGEEQSHGLHLAARAGQGVSITAEFTVQPAHQGAPGLAHGGVLATALDETLGSLNWLLRTIAVTGRLETDFVRPVPVGTVLYLEAEVTAVAGRKIYSTATGRIGGPEGPVAVRADALFVEVKVDHFTDNGRQEEIRAAMNDPDQLRRARAFEVNPLEHHHHHH | not soluble
MGSDKIHHHHHHMAGYNTYVVGKWHVGTKSVPEDYGIKGHNFDGYGYPGSGVYKNLVFNQPPTHSNRYKEWLEEKGYEIPEVSRAYFGDNPHLRVQELCGLLSGAKDQTIPYFIIDEAKKYIQESLDEGKPFFAWINFWGPHTPCIVPEPYYSMYRKEDVVLDKSFFTPLEGKPDHFRTISKMWGMWEASEDHWKEVITKFWGYITLIEDDNLVYLHDLTSTVFDLANQKVPESFEGQSVLPIMRQHQDNQRKGVLGQLAGHFVYFEQRMWRRKDYKLVFNATDVCELYNIRNDPEEMHNLFYDPQYNRIKKEMLEEMRAEMKRLNDPLENWVYRIIDEI | not soluble
MPLHVVLYQPEIPANTGNIARTCAATDTSLHLIRPLGFSTDDKMLKRAGLDYWPYVNISYYDSLDELFARFPEGEFYFITKFGRRYYDSFDFSDTEKHIFFVFGRETTGLPKELLEANMDRCLRIPMNDKVRSLNLSNTAAILVYEALRQQRFYGLS | not soluble
GPGSMGEGRIRCYYEVLEVERKATYDEIRTAYKKKSLQYHPDKNYGNQEEAAMRFKEVQNAYSILSDADERAWYDSHREAILRGGDGTGDLDELNLYEYFTAGCFDGFDDGESGFYTVYRKVFDILIEEESDYDSRAKLWPGFGTSTSDWADVQKFYGYWRNFSTYKTFTWKDEYKVNEMEDRYSRRMAGRINSKARDGAKKEYVRTVQSLAQFVYRRDPRVKAELERQEKEDQAKREERERQEIERLKRRREANERVWAEAAEREAREEAERAARGEAMDGSILEMLYEKERQTKEMMRGSGGVGAHTAGFAMLGGDDDEAVTVFNCPACKKQFKSENQYKEHVRSNKHKTKLKQLAAKGTDVAALMGEKVEGGSGGTEE | soluble
MIQCEECLCWQHSVCMGLLEESIPEQYICYICRDPPGQRWSAKYRYDKEWLNNGRMCGLSFFKENYSHLNAKKIVSTHHLLADVYGVTEVLHGLQLKIGILKNKHHPDLHLWACSGKRKDQDQIIAGVEKKIAQDTVNREEKKYVQNHKEPPRLPLKMEGTYITSEHSYQKPQSFGQDCKSLADPGSSDDDDVSSLEEEQEFHMRSKNSLQYSAKEHGMPEKNPAEGNTVFVYNDKKGTEDPGDSHLQWQLNLLTHIENVQNEVTSRMDLIEKEVDVLESWLDFTGELEPPDPLARLPQLKRHIKQLLIDMGKVQQIATLCSV | soluble
MGSDKIHHHHHHVFDALVIGSGPAGLAIAAELAQRGLKVQGLSPVDPFHPWENTYGIWGPELDSLGLEHLFGHRWSNCVSYFGEAPVQHQYNYGLFDRAQLQQHWLRQCEQGGLQWQLGKAAAIAHDSHHSCVTTAAGQELQARLVVDTTGHQAAFIQRPHSDAIAYQAAYGIIGQFSQPPIEPHQFVLMDYRSDHLSPEERQLPPTFLYAMDLGNDVYFVEETSLAACPAIPYDRLKQRLYQRLATRGVTVQVIQHEEYCLFPMNLPLPDLTQSVVGFGGAASMVHPASGYMVGALLRRAPDLANAIAAGLNASSSLTTAELATQAWRGLWPTEKIRKHYIYQFGLEKLMRFSEAQLNHHFQTFFGLPKEQWYGFLTNTLSLPELIQAMLRLFAQAPNDVRWGLMEQQGRELQLFWQAIAAR | not soluble
MGSDKIHHHHHHMVAYGELIREVRLSKGLTQKEVYTGVISKSYAIGFEKGKHDITLVLFEEILERVMLSSDEFFFMNRGYSLAEEDNFWYKFANAANQKSLADLQELYQEVLQQTGDRANLRKAIVHSRMEINEQFLLNNRFDVSIVSEKDKAVIQTYLWKVQSWTLEEIRIFANSVDYFEEDVQIYFFQLVLKSLEKYKHYDRGKKVFSTLLSNIIEELITRNQLEYAAQLLEILHELSSTHDCAFYRIMHNYYQGLIWMKNDQVEQGLKESKSAIRILDVLDYKSLAQLYNTLLQQFLEKENIQIV | not soluble
MGQAPDRPHLETFLARLRAGAKILELGCGGGQDSEYMLSAGFDVHPTDGTPDIAKAAQARLGIPVRTLLFENIEDAALYDAVWANACLLHVPRLALPGIIGRIHTALKPGGVFYASFKAGEVEGRDTFGRYYNYPSKAWLEETYGQFAWTEVEIEARQGSGYDKLPTDWLHVTATKALEHHHHHH | not soluble
MGCTLSAEDKAAVERSKMIDRNLREDGERSRRELKLLLLGTGESGKSTFIKQMRIIHGSGYSDEDKRGFTKLVYQNIFTAMQAMIRAMDTLKIPYKYEHNKAHAQLVREVDVEKVSAFENPYVDAIKSLWNDPGIQECYDRRREYQLSDSTKYYLNDLDRVADPSYLPTQQDVLRVRVPTTGIIEYPFDLQSVIFRMVDVGGQRSERRKWIHCFENVTSIMFLVALSEYDQVLVESDNENRMEESKALFRTIITYPWFQNSSVILFLNKKDLLEEKIMYSHLVDYFPEYDGPQRDAQAAREFILKMFVDLNPDSDKIIYSHFTCATDTENIRFVFAAVKDTILQLNLKEYNLV | soluble
MGSDKIHHHHHHMKIQNTEWGYIEWKHTYDENNPKQAMNIYIAVTMPGKKHFNHVHYGQEQMIYILEGEGLYIINGVWKPFYQGMIFYIESGSTHETINTGDREIKELIVSNNVDDVGESEIIDINPNNYLKKTLINYSESTLNLYAAVESIRGQFIDPFKIPLIIYDDSWNIVLKNPYFPLFCFEKCNPMKFPQNCDCMNQKSSNQFVCEYGITIYNIPILYKSNSIGVIRGGYVLLSDLNLDTEHNNLYDIPEGAARSIKRLLKQISKNIINFCSFNDIRKDLQEKEKTIARTYHYGEQLEMNLKVAQDMVTNLRINHHFLFNTLNSMASIALDDGSYDLYSAIIDLSRMFRYTMRSDLRFVELESEILYIKNYLNLQKLRYGDALKVKYLIPEKLYNLSVPFNFIQPIVENAFTHGFRDIDTEKRIEIIARLDSQYAIIEIHNNGTILDGNNIDKIKAGIRSNNGHGLSLIYTKFTSAYGNNFDMDIKSSDNEGTYIMIKIPIENYKEYV | not soluble
MSLTVNNEISKAFSKHADDYERVAKVQKEIGSRLFERLQYLKIAPRRILDLGCGPGFFSKELALLYPKAQIVGMDLSFAMLEQARKKQGWRRKWPLVSADMQKMPFATGAFDLVFANQVIHWSSSLGMVFRELNRVMNVNGCLMFTTLGPDTFKELQTAWSAANQYAHVNEFVDMHDIGDCLIAEHFMDPVIDMELLSIHYETLPQLLLALKTQGVRNINPKRNHGLTGKSAWKQFEAQYATMRTTTGKYPLTYEVVYGQAWKGAQRKMEQGEGHHHHHH | not soluble
MGHHHHHHSHMPFTPPVVKRLLGWKKSAGGSGGAGGGEQNGQEEKWCEKAVKSLVKKLKKTGRLDELEKAITTQNCNTKCVTIPSTCSEIWGLSTPNTIDQWDTTGLYSFSEQTRSLDGRLQVSHRKGLPHVIYCRLWRWPDLHSHHELKAIENCEYAFNLKKDEVCVNPYHYQRVETP | soluble
VIDSMTSTDLLPEEPKWVPLSSESIQQYVDEGKVVFVDVTADWCVTCKANKIGVLLQEPVYSELNSANVVPMQGDWTVPSEKITSYLQEHGRFGVPFNVVYGPSAPNGIELPVILNEKVVMDAIKKAGNK | soluble
MGSDKIHHHHHHMKYTVIICDDNLNHASNLALKIGIAAMVDSGDNPDTEIDLEIGKIAQNALDVIEYLKENPISGGIYFLDIELSQEKNAMNGIDLAEQVKQLDPRAQIIFVTAYNEYMEMTFERRIGAVDYINKSNPNLQNRLNETLQDTVRRISKENYSKKMTFSYRLGRIIKNINIDDIYYISTTKAPHKLKLVKNDGTAEFAGDIKSVDKQNEFLTKVSQSYLVNPKNIVQINLKKKEITLSNGDAIKFSRRFTHVMKDMINTYNLKQNNYQI | not soluble
MRGVVKELNDDGFGVLGNVLVPFSAPGDEVEILKIEKVKKAKIASKWKLIKSSPLRVGARCKVFGRCGGCSLQHLSYDYQLEFKGERIRRLLGVDVEVIPSPRIFGHRNRIDLAVTVEGIGFRERGKWWKIVDIQECPVFGKTSRKAIERLREFIEEERISVWNVKKDEGFLRYMVLREGKFTGEVMVNLVTKEGKLPDPSKYFDFATSIYWSVNRTKSDVSYGEVESVWGREFITEKLDDVIYLIHPNSFFQTNSYQAVNLVKKVSELVEGERVLDMYSGVGTFGIYLAKRGFKVVGFDSNEFAIEMARKNAKINKVDAVFDVATDREVEVNGFDTVIVDPPRVGLHPKLIKKLNREKPEVIVYVSCNPKTFARDIEKLEYKIDEIVALDMFPHTPHLELVAKLIV | soluble
MVRKGRQHTEEALQEPRADRDRDVPNHIRGQAEQGVGARALQEGRGERAPQDTPAARGGRARGEGAREGEDYIARWEKPPRHHRQGDNGGARQDQARAGEVPLDLLILILIGP | soluble
